In publication PMC7840601 (2020):

Biological target: human C3b (CompTech) (human)
Experiment: SPR

human C3b (CompTech) (human), sequence (chain, as listed by the source, chain 1 of 2): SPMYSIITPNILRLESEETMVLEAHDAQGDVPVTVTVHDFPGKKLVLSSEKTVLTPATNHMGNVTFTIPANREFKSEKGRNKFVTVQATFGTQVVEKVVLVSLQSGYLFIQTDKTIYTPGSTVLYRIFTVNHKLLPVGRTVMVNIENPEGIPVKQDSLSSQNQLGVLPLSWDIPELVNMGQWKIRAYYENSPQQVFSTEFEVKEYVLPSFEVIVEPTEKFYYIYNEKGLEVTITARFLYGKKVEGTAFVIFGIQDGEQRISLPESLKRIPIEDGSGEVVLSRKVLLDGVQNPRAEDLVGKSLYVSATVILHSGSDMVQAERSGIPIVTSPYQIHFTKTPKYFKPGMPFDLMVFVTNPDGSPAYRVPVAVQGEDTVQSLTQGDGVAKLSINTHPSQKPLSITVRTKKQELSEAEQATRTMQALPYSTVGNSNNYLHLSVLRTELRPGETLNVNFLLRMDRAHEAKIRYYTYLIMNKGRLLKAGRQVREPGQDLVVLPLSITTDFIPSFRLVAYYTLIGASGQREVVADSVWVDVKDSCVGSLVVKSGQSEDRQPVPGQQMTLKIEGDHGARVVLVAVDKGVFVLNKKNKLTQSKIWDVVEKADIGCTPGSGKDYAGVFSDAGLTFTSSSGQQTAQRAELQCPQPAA
human C3b (CompTech) (human), sequence (chain, as listed by the source, chain 2 of 2): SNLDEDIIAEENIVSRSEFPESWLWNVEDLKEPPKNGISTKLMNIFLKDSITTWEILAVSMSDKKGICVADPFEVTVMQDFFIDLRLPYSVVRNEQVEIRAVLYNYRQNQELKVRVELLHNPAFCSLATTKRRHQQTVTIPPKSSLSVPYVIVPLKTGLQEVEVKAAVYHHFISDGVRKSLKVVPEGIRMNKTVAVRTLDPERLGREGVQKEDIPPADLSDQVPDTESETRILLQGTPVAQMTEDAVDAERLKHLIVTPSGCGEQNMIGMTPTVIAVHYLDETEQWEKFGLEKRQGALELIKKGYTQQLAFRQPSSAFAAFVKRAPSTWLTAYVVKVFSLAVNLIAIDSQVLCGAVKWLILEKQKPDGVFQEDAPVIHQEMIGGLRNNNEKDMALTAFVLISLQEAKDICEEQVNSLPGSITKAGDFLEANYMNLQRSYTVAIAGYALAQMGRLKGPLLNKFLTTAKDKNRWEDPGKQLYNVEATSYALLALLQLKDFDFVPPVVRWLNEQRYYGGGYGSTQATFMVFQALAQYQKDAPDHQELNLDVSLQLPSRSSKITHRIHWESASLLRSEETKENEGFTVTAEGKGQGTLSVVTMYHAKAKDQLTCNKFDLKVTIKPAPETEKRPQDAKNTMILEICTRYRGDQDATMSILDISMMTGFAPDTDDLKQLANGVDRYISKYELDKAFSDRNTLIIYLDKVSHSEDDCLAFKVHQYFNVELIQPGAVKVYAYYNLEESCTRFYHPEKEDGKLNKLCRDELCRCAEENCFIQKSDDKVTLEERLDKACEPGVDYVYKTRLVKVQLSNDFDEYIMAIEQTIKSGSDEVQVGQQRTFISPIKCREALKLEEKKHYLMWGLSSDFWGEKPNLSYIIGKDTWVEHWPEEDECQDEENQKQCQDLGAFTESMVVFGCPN

B1: FH1-4 WT (complement factor H CCPs 1-4, wild type) (domain or fragment)
chain: EDCNELPPRRNTEILTGSWSDQTYPEGTQAIYKCRPGYRSLGNVIMVCRKGEWVALNPLRKCQKRPCGHPGDTPFGTFTLTGGNVFEYGVKAVYTCNEGYQLLGEINYRECDTDGWTNDIPICEVVKCLPVTAPENGKIVSSAMEPDREYHFGQAVRFVCNSGYKIEGDEEMHCSDDGFWSKEKPKCVEISCKSPDVINGSPISQKIIYKENERFQYKCNMGYEYSERGDAVCTESGWRPLPSCE
  Kd: 18.1 µM
